Measurements taken from US6132722A, “Recombinant antibody-enzyme fusion proteins” (Bristol-Myers Squibb Company, priority 1998, dated 2000).

Assays:
p97 antigen = molecular target: T1, p97 antigen (Homo sapiens, UniProt P08582); test: Surface plasmon resonance binding to immobilized p97 antigen; details: p97 immobilized on gold surface
T1 sequence (P08582 20-738): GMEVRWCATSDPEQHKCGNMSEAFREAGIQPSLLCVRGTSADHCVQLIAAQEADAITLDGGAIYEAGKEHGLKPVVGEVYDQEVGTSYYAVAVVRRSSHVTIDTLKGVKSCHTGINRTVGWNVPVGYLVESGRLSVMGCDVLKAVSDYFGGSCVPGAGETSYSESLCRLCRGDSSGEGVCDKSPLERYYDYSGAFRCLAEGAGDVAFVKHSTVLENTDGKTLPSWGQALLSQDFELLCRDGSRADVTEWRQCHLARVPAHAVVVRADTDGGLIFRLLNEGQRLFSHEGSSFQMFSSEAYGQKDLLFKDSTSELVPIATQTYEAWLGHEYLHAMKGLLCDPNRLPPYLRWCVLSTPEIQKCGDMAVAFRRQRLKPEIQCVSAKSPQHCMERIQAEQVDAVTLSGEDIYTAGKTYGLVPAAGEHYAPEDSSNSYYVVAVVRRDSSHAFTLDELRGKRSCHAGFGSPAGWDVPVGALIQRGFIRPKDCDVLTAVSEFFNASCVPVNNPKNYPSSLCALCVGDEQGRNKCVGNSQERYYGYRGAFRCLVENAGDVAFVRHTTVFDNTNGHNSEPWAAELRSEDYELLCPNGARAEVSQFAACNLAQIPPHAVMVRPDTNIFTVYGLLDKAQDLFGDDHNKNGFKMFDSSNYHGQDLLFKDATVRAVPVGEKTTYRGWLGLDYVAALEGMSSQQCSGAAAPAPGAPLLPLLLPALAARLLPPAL
Experimental: The binding characteristics of the sFv portion of the fusion protein were determined using a fluorescent activated cell sorting competition assay in which fusion protein and FITC-modified whole L49 competed for binding to cell-surface antigens on SK-MEL 28 melanoma cells. […] More detailed information about binding was obtained using surface plasmon resonance, which allowed the measurement of the on and off rates of L49-sFv-bL binding to the p97 antigen immobilized on a gold surface (Table 1).

3677 melanoma xenografts = test: In vivo therapy of established s.c. 3677 melanoma xenografts; parameters: species or system nude mice
Experimental: FIGS. 10A-10D. Therapeutic effects of L49-sFv-bL/CCM combinations in nude mice (six mice/group) with subcutaneous 3677 melanoma xenografts. Conjugates were injected, followed at various times by CCM (arrows on the X-axis). […] FIG. 10A. L49-sFv-bL (1 mg/kg/injection) 12 h before CCM. FIG. 10B. L49-sFv-bL (1 mg/kg/injection) 24 h before CCM. FIG. 10C. L49-sFv-bL (4 mg/kg/injection) 24 h before CCM. FIG. 10D. L49-sFv-bL (4 mg/kg/injection) 48 h before CCM.
In Vivo Therapy Experiments. 3677 tumor-bearing mice (subcutaneous implants, six animals/group, average tumor volume 130 mm^3) were injected with L49-sFv-bL (i.v., 7-8 days post tumor implant), followed 12-48 h later by CCM using doses of fusion protein and prodrug as indicated in the Results section. Treatment with L49-sFv-bL+CCM was repeated 1 week later. Animals were monitored 1-2 times/week for body weight, general health, and tumor growth. Tumor volume was estimated using the formula: longest length×perpendicular dimension^2 /2. Cures were defined as an established tumor that, after treatment, was not palpable for ≥10 tumor volume doubling delays (≥40 days in the 3677 tumor model). Maximum tolerated doses led to less than 20% weight loss, no treatment-related deaths, and were within 50% of the dose where such events took place.
Therapeutic Activity. In vivo therapy experiments were performed using the L49-sFv-bL/CCM combination in nude mice with established s.c. 3677 tumors. […] In the experiments reported here, conjugate treatment was initiated 7-8 days after tumor implant, at which time the tumors were approximately 130 mm^3 in volume. CCM was then administered 12, 24, or 48 h later, and the treatment protocol was repeated after 1 week. Maximum tolerated doses are defined as those that led to less than 20% weight loss, no treatment-related deaths, and were within 50% of the dose where such events took place. A tumor was considered as having been cured once it was not palpable for at least 10 tumor volume doubling times, based on the tumor growth of untreated animals (tumor volume doubling time was 4 days). If an animal was removed from the experiment because of tumor growth, the data from the entire group was no longer plotted, but the remaining animals were followed for tumor size and general health.

[1] = L49-sFv-bL 1 mg/kg/injection, CCM 75 mg/kg/injection 12 h later

B1: L49-sFv-bL: recombinant fusion protein: L49 anti-p97 single-chain Fv (VH-218 linker-VL) fused to r2-1 mutant E. cloacae β-lactamase, SEQ ID NO: 20 (protein)
chain: MKYLLPTAAAGLLLLAAQPAMAEVQLQESGPSLVKPSQTLSLTCSVTGDSITSGYWNWIRKFPGNKLEYMGYISDSGITYYNPSLKSRISITRDTSKNQYYLQLNFVTAEDTATYNCARRTLATYYAMDYWGQGTSVTVSSGSTSGSGKPGSGEGSTKGDFVMTQTPLSLPVSLGDQASISCRASQSLVHSNGNTYLHWYLQKPGQSPKLLIYRVSNRFSGVPDRFSGSGSGTDFTLKISRVEAEDLGVYFCSQSTHVPPTFGGGTKLEIKRTPVSEKQLAEVVANTITPLMKAQSVPGMAVAVIYQGKPHYYTFGKADIAANKPVTPQTLFELGSISKTFTGVLGGDAIARGEISLDDAVTRYWPQLTGKQWQGIRMLDLATYTAGGLPLQVPDEVTDNASLLRFYQNWQPQWKPGTTRLYANASIGLFGALAVKPSGMPYEQAMTTRVLKPLKLDHTWINVPKAEEAHYAWGYRDGKAVRVSPGMLDAQAYGVKTNVQDMANWVMANMAPENVADASLKQGIALAQSRYWRIGSMYQGLGWEMLNWPVEANTVVETSFGNVALAPLPVAEVNPPAPPVKASWVHKTGSTGGFGSYVAFIPEKQIGIVMLANTSYPNPARVEAAYHILEALQTSEFE
p97 antigen
  Kd: 1 nM
  koff: 0.00042 s⁻¹
3677 melanoma xenografts; CCM 24 h post conjugate, both cases (FIG. 10B, 10C)
  toxicity: no evidence of toxicity
3677 melanoma xenografts; [1]
  cures in the group of six mice: four
  tumor response of the remaining two animals: partial regressions
3677 melanoma xenografts; L49-sFv-bL 1 mg/kg/injection, CCM 125 and 175 mg/kg/injection 12 h later, repeated after 1 week
  tumor cures: all of the animals
3677 melanoma xenografts; L49-sFv-bL 1 mg/kg/injection, increased CCM dose 24 h later (FIG. 10B)
  tumors cured: the majority of tumors were cured
3677 melanoma xenografts; L49-sFv-bL 4 mg/kg/injection, CCM 275 mg/kg/injection 48 h later
  animals cured, of six: three
3677 melanoma xenografts; L49-sFv-bL 4 mg/kg/injection, CCM 24 h later (FIG. 10C)
  tumors cured: the majority of tumors were cured
3677 melanoma xenografts; L49-sFv-bL 4 mg/kg/injection, CCM 48 h later (FIG. 10D)
  tumor regressions: all of the mice
3677 melanoma xenografts; L49-sFv-bL then CCM 75, 125 or 175 mg/kg/injection 12 h later
  toxicity: no apparent toxicities
